Here are results for 41 sequences from the nanobody polyreactivity screen of Harvey et al. (2022).

This data set is described as follows: yeast display, Sf9 membrane polyspecificity reagent, FACS + sequencing; frameworks hold sequencing errors. The procedure, abridged: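 Nanobodies came from a synthetic yeast display library in Saccharomyces cerevisiae BJ5465, induced with galactose for 36–48 hours and stained for 1 hour at 4 °C with 10% biotinylated, detergent-solubilized Sf9 membrane reagent. Cells were enriched on streptavidin microbeads and then FACS-sorted, with low and high (top ~1%) gates set on anti-HA fluorescence for expression and streptavidin fluorescence for reagent binding. Each polyreactivity label reflects the gate a clone came from. Genes were amplified by colony PCR, sequenced by MiSeq 2 × 250 and filtered by CDR length.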
As for “QVQLVESGGGLVQAGGSLRLSCAASGLIFRYYAMGWYRQAPGKERELVAAIRRGGSTYYADSVKGRFTISRDNAKNTVYLQMNSLKPEDTAVYYCAADSYYWRYEYDYWGQGTQVTVSS”, the “polyreactivity (PSR sort gate)” value is on record as “high polyreactivity”.

With “QVQLVESGGGLVQAGGSLRLSCAASGLIFRYYCMGWSRQAPRKERELVATINRSGGRTYYADSVKGRFTISRDNAKNTDSLQMNSQKRDETAVYYCAALPEVYWIYGPQMDYWGQGTQVNVSS”, the “polyreactivity (PSR sort gate)” value is “high polyreactivity”.

With “QVQLVESGGGLVQAGGSLRLSCAASGLIFSEYAMGWYRQAPGKERELDAAIRSDGGSTYYADSVKGRFTISRDNAKNTVYLQMNSLKPEDTAVYYCNDRHRSQTRTAMNYWGQGTIVTVSS”, the “polyreactivity (PSR sort gate)” value was “high polyreactivity”.

With “QVQLVESGGGLVQAGGSLRLSCAASGLIFSGYAMGRYRQAPGKERELVAAITWSGGSTYYADSVKGRFTISRDNAKNTVYLQMNSLKPEDTAVYYCNAKFFQISRYGYWGQGTQVTVSS”, the “polyreactivity (PSR sort gate)” value is “high polyreactivity”.

On to “QVQLVESGGGLVQAGGSLRLSCAASGLIFSPYAMGWYRQAPGKERELVATISVSGGDTYYADSVKGRFTISRDNAKNTVYLQMNSLIPDDTAVYYCAADSFYRYYWGQGTHVTVSS”, for which the “polyreactivity (PSR sort gate)” value is given as “high polyreactivity”.

On to “QVQLVESGGGLVQAGGSLRLSCAASGLIFSRYTMGWYRQAPGKERELVAAISKTGSSTYYADSVKGRFTISRDNAKNTVYLQMNSLIPEDTAVYYCAARAYPGYYWGQGTQVTVSS”, for which the “polyreactivity (PSR sort gate)” value is listed as “high polyreactivity”.

As to “QVQLVESGGGLVQAGGSLRLSCAASGLIFSTYAMGWYRQAPGKERELVAAITNSGGSTYYADSVKGRFTISRDNAKNTDYLQMNSLKPEDTAVYYCARRRSYRDNYWGQGTQVTVSS”, the “polyreactivity (PSR sort gate)” value is listed as “high polyreactivity”.

For the sequence “QVQLVESGGGLVQAGGSLRLSCAASGLIFSVNAMGWYRQAPGKERELVAAITWSSGRTYYADSVKGRFTISRDNAKNTVYLQMNSLKPEDTAVYYCAAVSYWYGQMYYWGHGTQVTVSS”, the “polyreactivity (PSR sort gate)” value is “high polyreactivity”.

In the case of “QVQLVESGGGLVQAGGSLRLSCAASGLIFSVYVMGWYRQAPGKERELVAGITTGGSTKYADSVKGRFTISRDNAKNTVYLQMNSLKPEDTSVYYCAVGKYNYRGSWDYYWGQGTQVTVSS”, the “polyreactivity (PSR sort gate)” value is “high polyreactivity”.

As for “QVQLVESGGGLVQAGGSLRLSCAASGLIFSWNAMGWYRQAPGKEWELVASISYSGGRTYYADSVKGRFTISRDNAKNTVYLQKNSLKPEDTAVYYCAADTNATTDPQMDYWGQGTQVTVSS”, the “polyreactivity (PSR sort gate)” value was “low polyreactivity”.

For “QVQLVESGGGLVQAGGSLRLSCAASGLIFSWYDMGWYRQAPGIERELVAAITTDGDDTYYADSVKGRFTISRDNAKNTVYLQLNSLKPEDTAVYYCAADSELAIRYPDRDYDSWGHGTQVTVSS”, the “polyreactivity (PSR sort gate)” value is listed as “low polyreactivity”.

Regarding “QVQLVESGGGLVQAGGSLRLSCAASGLIFSYNAMGWYRQAPGKERELVASISSGDSTNYADSVKGRFTISRDNAKNTVYLQMNSLKPEDTAVYYCNKVYSWGDYTPPFYFPYDYWGQGTQVTVSS”, the “polyreactivity (PSR sort gate)” value was “low polyreactivity”.

Take “QVQLVESGGGLVQAGGSLRLSCAASGLIFVDNAMGWYRQAPGKERELVAAIESGGSTNYADSVKGRFTISRDNAKNTVYLHMNSLKPEDTAVYYCAADWIYAPWYYQESVEYYYWGQGTQVTVSS”: the “polyreactivity (PSR sort gate)” value was “low polyreactivity”.

For “QVQLVESGGGLVQAGGSLRLSCAASGLIFVGNAMGWYRQAPGKERELVAAISSRGGRTYYADSVKGRFTISRDNAKNTVYLQMNSLKPEDTAVYYCNAAKSQWGFEYWGQGTQVTVSS”, the “polyreactivity (PSR sort gate)” value is reported as “high polyreactivity”.

Turning to “QVQLVESGGGLVQAGGSLRLSCAASGLIFVGYAMGWSRQAPGKERELVAAITSGGYTKYADSVKGRFTISRDNAKYSVYLQMNSLKPEDTAVYFCAASGWRKWWSARNYYWGQGTQVTVSS”, the “polyreactivity (PSR sort gate)” value is reported as “low polyreactivity”.

“QVQLVESGGGLVQAGGSLRLSCAASGLIFVINAMGWYRQAPGKERELVATISSRVSTNYADSVKGRFTISRDNAKNTVYLQMNSLKPEDTAVYYCNKGQTVSRGYRLYERFDYWGQGTQVTVSS”: the “polyreactivity (PSR sort gate)” value is “low polyreactivity”.

Take “QVQLVESGGGLVQAGGSLRLSCAASGLIFVKYAMGWYRQAPGKERELVAAITSTGGSTYYADSVKGRFTISRDNAKNTVYLQMNILKPEDTAVYYCATDYGYYDYWGQGTQVTVSS”: the “polyreactivity (PSR sort gate)” value is “low polyreactivity”.

Take “QVQLVESGGGLVQAGGSLRLSCAASGLIFVKYARGWYRQAPGKEREFVAAITRSGGTTYYADSVKGRFTISRDNAKNPVYLQMNSLKPEDTAVYYCAAGVVIYFFGGGDYWGQGPQVTVSS”: the “polyreactivity (PSR sort gate)” value is “low polyreactivity”.

In the case of “QVQLVESGGGLVQAGGSLRLSCAASGLIFVQNAMGWYRPAPGKERELVAAISSRGTNTYYADSVKGRFTISRDTAKNTVYLQMNSLKPEDTAVYYCAKPLKTPRPNYDYWGQGTQVTVSS”, the “polyreactivity (PSR sort gate)” value is on record as “low polyreactivity”.

As for “QVQLVESGGGLVQAGGSLRLSCAASGLIFVSYAMGWYRPAPGKERELVAAINSRGSRTYYADSVKGRFTISRDNAKNTVYLQMNSLKPEDTAVYYCAAGVIRYGGKEEYYYWGQGTQVTVSS”, the “polyreactivity (PSR sort gate)” value is “high polyreactivity”.

Regarding “QVQLVESGGGLVQAGGSLRLSCAASGLIFVSYGMGWYRQAPGKERELVAAITFSGGSTYYADSVKGRFTISRDNAKNTVYLQMNSLKPEDTAVYYCNADYYPGYDYWGQGTQVTVSS”, the “polyreactivity (PSR sort gate)” value is “high polyreactivity”.

As to “QVQLVESGGGLVQAGGSLRLSCAASGLIFVVYVMGWYRQAPGKERELVAAISGSGDSTYYADSVKGRFTISRDNAKNTVYLQMNSLKPEDTAVYYCNARSISRKKGYPPQRSDGYWGQGTQVTVSS”, the “polyreactivity (PSR sort gate)” value is “high polyreactivity”.

As to “QVQLVESGGGLVQAGGSLRLSCAASGLIFVWYALGWSRQAPGKERELVAAISWRGGTTYYADSVKGRFTISRDNAKNTVYLQMNSLKPEDTAVYYCNAEGSQVDYLRYVWYDMDYWGQGTQVTVSS”, the “polyreactivity (PSR sort gate)” value is reported as “low polyreactivity”.

For “QVQLVESGGGLVQAGGSLRLSCAASGLIFVYYTMGWYRQAPGKERELVARISQSGGTTYYADSVKGRFTISRDNAKNTVYLQMNSLKPEDTAVYYCNARRVGVHYRYDYWGQGTQVTVSS”, the “polyreactivity (PSR sort gate)” value is recorded as “high polyreactivity”.

For the sequence “QVQLVESGGGLVQAGGSLRLSCAASGLIFWAYAMGWYRQAPGKERELVAAINSGGRTYYADSVKGRFTISRDNAKNTVYLQMNSLKPEDTAVYYCAAAGVYSSDYWGQGTQVTVSS”, the “polyreactivity (PSR sort gate)” value is given as “low polyreactivity”.

Regarding “QVQLVESGGGLVQAGGSLRLSCAASGLIFWAYAMGWYRQAPGKERELVAAINWRGGSTYYADSVKGRFTISRDNAKNTVYLQMNSLKPEDTAVYYCAADSYYDEYDYCGQGTQVTVSS”, the “polyreactivity (PSR sort gate)” value is reported as “low polyreactivity”.

In the case of “QVQLVESGGGLVQAGGSLRLSCAASGLIFWAYAMGWYRQAPGKERELVAGISVSGGSTYYADSVKGRFTISRDNAKNTVYLQMNSLKPEDTAVYYCAARLPRTRYWDDYWGQGTQVTVSS”, the “polyreactivity (PSR sort gate)” value is listed as “high polyreactivity”.

Consider “QVQLVESGGGLVQAGGSLRLSCAASGLIFWHYAMGWYRQAPGKERELVARISYGGGSTYYADSVKGRFTISRDNAKNTVYLQMNSLKPEDTAVYYCNAKYYSVSQYWYNYWGQGTQVTVSS”, for which the “polyreactivity (PSR sort gate)” value is recorded as “high polyreactivity”.

Consider “QVQLVESGGGLVQAGGSLRLSCAASGLIFYAYVMGWYRPAPGKERELVAAITVSGGSTYYADSVKGRFTISRDNAKNTVYLQMNSLKPEDTAVYYCAADWNFYQRTFDSWGQGTQVTVSS”, for which the “polyreactivity (PSR sort gate)” value is “low polyreactivity”.

As to “QVQLVESGGGLVQAGGSLRLSCAASGLIFYDNMGWSRQAPGKERELVAAISSSGGSTSYADSVKGRFTISRDNAKNTVYVQMNSLKPVDTAVYYCAADSYPAYLGFVGFDYWGQGTQVTVSS”, the “polyreactivity (PSR sort gate)” value was “low polyreactivity”.

Take “QVQLVESGGGLVQAGGSLRLSCAASGLIFYGYVMGWYRQAPGKERELVAGISRNSGSTYYADSVKGRFTISRDNAKITVYLQMKSLKPEDTAVYYCDALKFEAWAGEDYWGQGTQLTVSS”: the “polyreactivity (PSR sort gate)” value is given as “low polyreactivity”.

With “QVQLVESGGGLVQAGGSLRLSCAASGLIFYHNTMGWYRQAPGKEREFVASITQSGGSTYYADSVKGRFTISRDNAKNTVYLQMNSLKPEDTAVYYCAKRLRPGGYWYDYWGQGTQVTVSS”, the “polyreactivity (PSR sort gate)” value was “high polyreactivity”.

As to “QVQLVESGGGLVQAGGSLRLSCAASGLIFYKYAMGWYRQAPGNERELVAAISRGDNTYYADSVKGRFTISRDNAKNTVYLQMNSLKPEDTALYYCAAYRWIYQSQYQGYWLDYWGQGTQVTVSS”, the “polyreactivity (PSR sort gate)” value is reported as “high polyreactivity”.

Turning to “QVQLVESGGGLVQAGGSLRLSCAASGLIFYLYAMGWYRQAPGKEMELVAAISSGGSTYYADSVKGRFTISRDNAKNTVYLQMISLKPEDTAVYYCNARYYYVSGLQAYYYWGQGTQVTVSS”, the “polyreactivity (PSR sort gate)” value is given as “high polyreactivity”.

Take “QVQLVESGGGLVQAGGSLRLSCAASGLIFYPYAMGWYRQAPGKERELVAGISSSGDSTYYADSVKGRFTISRDNAKNTVYLQMNSLKPDDTAVYYCNTGWDPYGYDYWGQGTQVTVSS”: the “polyreactivity (PSR sort gate)” value is “low polyreactivity”.

“QVQLVESGGGLVQAGGSLRLSCAASGLIFYRYAMGRYRQAPRKERELVAAISSSGGSTYYADSVKGRFTISRDNAKNTVYLQMNSLKPEDTAVYYCSARPSTHGYKYGYWGQGTQVTVSS”: the “polyreactivity (PSR sort gate)” value is given as “high polyreactivity”.

As for “QVQLVESGGGLVQAGGSLRLSCAASGLIFYRYAMGWYRQAPGKERELVAAISSSGGSTYYADSVKGRFTISRDNAKNTVYLQMNSLKPDDTAVYYCAARPSTHGYKYGYWGQGTQVTVSS”, the “polyreactivity (PSR sort gate)” value was “high polyreactivity”.

With “QVQLVESGGGLVQAGGSLRLSCAASGLIFYRYAMGWYRQAPGKERELVAVITRSGGNTNYADSVKGRFTISRDNAKNTVYLQMNSLKPEDTAVYYCATRGIWKKVPYYYWGQGTQVTVSS”, the “polyreactivity (PSR sort gate)” value is “high polyreactivity”.

For the sequence “QVQLVESGGGLVQAGGSLRLSCAASGLIFYSYAMGWYRQAPGKERELVAAISKRGGSTYYADSVKGRFTISRDNAKNTVYLQMNSLKPEDTAVYYCAAVIHGSSQYYGGTYGRYYWGQGTQVTVSS”, the “polyreactivity (PSR sort gate)” value is listed as “high polyreactivity”.

For the sequence “QVQLVESGGGLVQAGGSLRLSCAASGLIFYYNAMGWYRPAPGKERELVAAISWSGGSTYYADSVKGRFTISRDNAKNTVYLQMNSLKPEDTAVYYCNADYHSVRRDYWGQGTQVTVSS”, the “polyreactivity (PSR sort gate)” value is given as “low polyreactivity”.

In the case of “QVQLVESGGGLVQAGGSLRLSCAASGLIFYYNAMGWYRQAPGKERELVAAISTGGSTNYADSVKGRFTISRDNAKNTVYLQMNSLKPEDTAVYYCAAGTRNPYGYKMYYWGQGTQVTVSS”, the “polyreactivity (PSR sort gate)” value was “high polyreactivity”.
